Our source for the Classification values is patent publication US20050282743A1, “Molecular interactions in cells” (Arbor Vita Corporation, priority 2001, published 2005).

What all share (experiment): G' assay
The target in experiment [1] is T1, GST-AF6 PDZ domain 1 (Homo sapiens (Human)), P55196.
T1 chain: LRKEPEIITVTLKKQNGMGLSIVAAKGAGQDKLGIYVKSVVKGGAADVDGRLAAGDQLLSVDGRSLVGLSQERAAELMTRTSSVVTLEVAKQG

In experiment [2] the target is GST-DLG1 PDZ domains 1, 2 (Homo sapiens), Q12959.
Experiment [3] concerns the target T2, GST-FLJ 10324 PDZ domain 1 [GST: P08515].
T2 chain: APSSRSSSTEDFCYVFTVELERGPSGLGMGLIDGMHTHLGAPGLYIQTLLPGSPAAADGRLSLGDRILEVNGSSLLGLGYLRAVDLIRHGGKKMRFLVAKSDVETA

The target of experiment [4] is T3, GST-HEMBA 1003117 PDZ domain 1 (Homo sapiens (Human)), Q96JH8.
T3 chain: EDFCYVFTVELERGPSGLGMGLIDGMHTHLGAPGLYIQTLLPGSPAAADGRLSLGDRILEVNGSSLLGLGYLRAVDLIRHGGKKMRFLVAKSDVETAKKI

Experiment [5] deals with T4, GST-MUPP1 PDZ domain 11 (Homo sapiens (Human)), O75970.
T4 chain: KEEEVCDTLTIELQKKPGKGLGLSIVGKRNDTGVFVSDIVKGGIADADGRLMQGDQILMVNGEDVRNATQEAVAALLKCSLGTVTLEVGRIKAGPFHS

The target in experiment [6] is GST-PIST PDZ domain 1 (Mus musculus (Mouse)), Q8BH60.
The target in experiment [7] is T5, GST-PTPL1 PDZ domain 4 (Homo sapiens (Human)), Q12923.
T5 chain: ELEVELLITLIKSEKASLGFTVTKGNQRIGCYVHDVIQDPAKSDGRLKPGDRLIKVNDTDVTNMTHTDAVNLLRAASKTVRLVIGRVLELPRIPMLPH

The target in experiment [8] is T6, GST-TIP1 PDZ domain 1 (Table 9 insert) (Homo sapiens (Human)), O14907.
T6 chain: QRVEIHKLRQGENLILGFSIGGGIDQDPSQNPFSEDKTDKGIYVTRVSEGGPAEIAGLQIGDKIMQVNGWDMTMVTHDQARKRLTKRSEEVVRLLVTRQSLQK

The target of experiment [9] is T7, GST-ZO-1 PDZ domain 1 (Rattus norvegicus (Rat)), A0A0G2.
T7 chain: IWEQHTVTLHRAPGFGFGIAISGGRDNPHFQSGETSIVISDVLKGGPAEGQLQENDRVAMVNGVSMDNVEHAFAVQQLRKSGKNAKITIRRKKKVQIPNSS

Experiment [10] concerns the target T8, GST-ZO-2 PDZ domain 1 (Homo sapiens (Human)), Q9UDY2.
T8 chain: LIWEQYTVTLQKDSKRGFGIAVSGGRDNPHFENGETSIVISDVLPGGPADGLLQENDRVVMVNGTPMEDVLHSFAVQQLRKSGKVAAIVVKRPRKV

Experiment [11] concerns the target T9, GST-AIPC PDZ domain 1 (Homo sapiens (Human)), O15018.
T9 chain: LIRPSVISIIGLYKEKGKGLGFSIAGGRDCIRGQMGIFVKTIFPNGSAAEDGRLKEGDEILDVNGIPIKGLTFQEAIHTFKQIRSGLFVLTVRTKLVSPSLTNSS

Experiment [12] concerns the target GST-BAI-1 Associated Protein PDZ domain 2 (Mus musculus (Mouse)), Q6RHR9.
The target in experiment [13] is GST-BAI-1 Associated Protein PDZ domain 5 (Homo sapiens (Human)), Q96QZ7.
Sequence of GST-BAI-1 Associated Protein PDZ domain 5 (Homo sapiens (Human)), Q96QZ7 (Q96QZ7 988-1099): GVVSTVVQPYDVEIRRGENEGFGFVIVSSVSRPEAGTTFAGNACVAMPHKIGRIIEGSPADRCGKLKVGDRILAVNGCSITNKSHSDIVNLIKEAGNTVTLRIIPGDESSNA
The target of experiment [14] is GST-DLG1 PDZ domain 1 (Homo sapiens), Q12959.
For experiment [15], the target named is T10, GST-DLG1 PDZ domain 2 (Homo sapiens), Q12959.
T10 chain: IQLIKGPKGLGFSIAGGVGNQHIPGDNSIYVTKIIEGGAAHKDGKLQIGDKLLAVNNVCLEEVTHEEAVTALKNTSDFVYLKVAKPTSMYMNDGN

Experiment [16] concerns the target T11, GST-INADL PDZ domain 8 (Homo sapiens (Human)), Q8NI35.
T11 chain: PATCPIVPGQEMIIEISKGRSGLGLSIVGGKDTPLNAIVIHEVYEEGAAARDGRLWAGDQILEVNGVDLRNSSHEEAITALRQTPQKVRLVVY

Experiment [17] deals with GST-KIAA1634 PDZ domain 1 (Homo sapiens (Human)), Q5TCQ9.
Sequence of GST-KIAA1634 PDZ domain 1 (Homo sapiens (Human)), Q5TCQ9 (Q5TCQ9 401-502): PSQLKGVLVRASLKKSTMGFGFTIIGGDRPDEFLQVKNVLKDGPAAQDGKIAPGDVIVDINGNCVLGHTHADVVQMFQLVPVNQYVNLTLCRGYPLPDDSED
The target in experiment [18] is T12, GST-KIAA1634 PDZ domain 2 (Homo sapiens (Human)), Q5TCQ9.
T12 chain: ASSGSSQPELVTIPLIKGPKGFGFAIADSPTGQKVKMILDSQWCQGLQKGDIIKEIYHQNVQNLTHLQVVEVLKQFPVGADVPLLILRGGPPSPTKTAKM

Experiment [19] deals with GST-KIAA807 [GST: P08515].
Sequence of GST-KIAA807 [GST: P08515] (P08515 whole entry, the tested form may be a part): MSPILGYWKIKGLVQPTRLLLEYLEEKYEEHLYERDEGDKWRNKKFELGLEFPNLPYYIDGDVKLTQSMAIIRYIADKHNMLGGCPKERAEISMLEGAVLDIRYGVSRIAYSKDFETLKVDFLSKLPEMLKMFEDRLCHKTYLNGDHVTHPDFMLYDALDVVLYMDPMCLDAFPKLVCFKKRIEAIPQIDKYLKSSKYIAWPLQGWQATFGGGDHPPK
Experiment [20] deals with T13, GST-MINT1 PDZ domains 1, 2, Q02410.
T13 chain: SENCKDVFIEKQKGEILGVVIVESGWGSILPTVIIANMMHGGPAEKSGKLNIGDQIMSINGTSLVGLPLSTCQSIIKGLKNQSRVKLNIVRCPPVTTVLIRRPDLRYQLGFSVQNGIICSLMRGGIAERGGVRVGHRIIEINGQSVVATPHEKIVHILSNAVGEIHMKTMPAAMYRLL

The target in experiment [21] is T14, GST-MUPP1 PDZ domain 10 (Homo sapiens (Human)), O75970.
T14 chain: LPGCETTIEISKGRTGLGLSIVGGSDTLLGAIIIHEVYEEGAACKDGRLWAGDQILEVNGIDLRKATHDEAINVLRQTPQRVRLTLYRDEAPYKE

The target of experiment [22] is T15, GST-MUPP1 PDZ domain 13 (Homo sapiens (Human)), O75970.
T15 chain: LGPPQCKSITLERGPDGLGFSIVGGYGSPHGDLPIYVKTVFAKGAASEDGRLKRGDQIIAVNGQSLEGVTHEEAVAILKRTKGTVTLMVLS

Experiment [23] addresses T16, GST-NeDLG PDZ domain 2 (Rattus norvegicus (Rat)), Q62936.
T16 chain: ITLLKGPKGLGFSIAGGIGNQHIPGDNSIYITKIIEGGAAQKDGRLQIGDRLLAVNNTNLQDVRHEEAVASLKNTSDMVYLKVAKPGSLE

In experiment [24] the target is T17, GST-NeDLG PDZ domains 1, 2, Q92796.
T17 chain: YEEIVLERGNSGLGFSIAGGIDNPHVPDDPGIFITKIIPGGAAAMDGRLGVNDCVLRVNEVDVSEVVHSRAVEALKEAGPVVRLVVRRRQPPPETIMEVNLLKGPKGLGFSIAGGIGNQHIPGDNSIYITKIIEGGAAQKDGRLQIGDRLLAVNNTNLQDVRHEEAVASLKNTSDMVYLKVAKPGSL

Experiment [25] addresses T18, GST-Outer Membrane PDZ domain 1 (Homo sapiens (Human)), P57105.
T18 chain: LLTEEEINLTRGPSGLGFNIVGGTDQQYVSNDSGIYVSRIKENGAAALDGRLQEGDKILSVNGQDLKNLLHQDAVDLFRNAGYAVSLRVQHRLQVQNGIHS

The target of experiment [26] is GST-PSD95 PDZ domain 1 (Homo sapiens).
In experiment [27] the target is GST-PSD95 PDZ domains 1, 2, 3 (Homo sapiens), P78352.
Sequence of GST-PSD95 PDZ domains 1, 2, 3 (Homo sapiens), P78352 (P78352 62-395): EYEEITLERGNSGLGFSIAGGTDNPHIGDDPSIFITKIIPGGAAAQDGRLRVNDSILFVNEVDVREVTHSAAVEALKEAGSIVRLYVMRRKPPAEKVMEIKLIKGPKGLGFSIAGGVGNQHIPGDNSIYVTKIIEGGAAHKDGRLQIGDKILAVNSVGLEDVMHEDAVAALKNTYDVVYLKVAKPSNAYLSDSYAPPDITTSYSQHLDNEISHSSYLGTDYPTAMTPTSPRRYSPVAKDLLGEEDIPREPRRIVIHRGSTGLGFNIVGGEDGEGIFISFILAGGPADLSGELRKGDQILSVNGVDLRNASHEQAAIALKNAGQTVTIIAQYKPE
The target of experiment [28] is T19, GST-PTPL1 PDZ domain 2 (Homo sapiens (Human)), Q12923.
T19 chain: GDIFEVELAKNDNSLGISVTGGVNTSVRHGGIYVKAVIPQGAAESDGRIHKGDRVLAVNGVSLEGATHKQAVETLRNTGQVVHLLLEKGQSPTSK

Experiment [29] has as its target T20, GST-APXL-1 PDZ domain 1 (Homo sapiens (Human)), Q13796.
T20 chain: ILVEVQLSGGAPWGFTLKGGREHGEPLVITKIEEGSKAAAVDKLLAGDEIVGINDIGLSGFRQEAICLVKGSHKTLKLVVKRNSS

The target in experiment [30] is GST-BAI-1 Associated Protein PDZ domain 4 (Homo sapiens (Human)), Q96QZ7.
Sequence of GST-BAI-1 Associated Protein PDZ domain 4 (Homo sapiens (Human)), Q96QZ7 (Q96QZ7 other isoform, or with tags, fused parts or gaps): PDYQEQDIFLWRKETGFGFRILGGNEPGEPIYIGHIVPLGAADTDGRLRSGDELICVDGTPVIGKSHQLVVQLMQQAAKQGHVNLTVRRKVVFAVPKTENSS
For experiment [31], the target named is T21, GST-KIAA0807(S) PDZ domain 1 (Homo sapiens (Human)), Q6P0Q8.
T21 chain: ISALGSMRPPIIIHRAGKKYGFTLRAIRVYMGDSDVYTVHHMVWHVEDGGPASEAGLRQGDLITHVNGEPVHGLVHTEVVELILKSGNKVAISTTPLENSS

In experiment [32] the target is T22, GST-MINT1 PDZ domain 2 (Mus musculus (Mouse)), B2RUJ5.
T22 chain: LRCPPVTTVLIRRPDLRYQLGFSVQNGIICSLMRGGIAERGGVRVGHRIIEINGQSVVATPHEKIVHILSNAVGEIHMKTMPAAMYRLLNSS

Experiment [33] concerns the target T23, GST-X-11 beta PDZ domain 2 (Rattus norvegicus (Rat)), O35431.
T23 chain: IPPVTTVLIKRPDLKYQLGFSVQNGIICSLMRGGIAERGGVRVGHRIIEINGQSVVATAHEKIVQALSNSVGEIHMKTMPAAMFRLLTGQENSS

Experiment [34] deals with T24, GST-DLG2 PDZ domain 2 (Homo sapiens (Human)), Q15700.
T24 chain: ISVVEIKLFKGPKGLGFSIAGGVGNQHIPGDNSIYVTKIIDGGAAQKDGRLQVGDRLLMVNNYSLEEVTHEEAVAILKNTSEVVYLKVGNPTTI

The target of experiment [35] is T25, GST-ENIGMA PDZ domain 1 (Homo sapiens (Human)), Q9NR12.
T25 chain: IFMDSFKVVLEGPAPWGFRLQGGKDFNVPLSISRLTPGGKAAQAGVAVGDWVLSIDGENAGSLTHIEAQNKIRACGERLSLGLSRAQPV

The target in experiment [36] is GST-KIAA0147 PDZ domain 1 (Homo sapiens (Human)), Q14160.
Sequence of GST-KIAA0147 PDZ domain 1 (Homo sapiens (Human)), Q14160 (Q14160 other isoform, or with tags, fused parts or gaps): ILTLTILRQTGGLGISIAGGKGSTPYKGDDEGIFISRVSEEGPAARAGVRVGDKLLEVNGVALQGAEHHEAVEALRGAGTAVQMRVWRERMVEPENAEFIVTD
Note: key of the grades not given here.

Sequence of GST-BAI-1 Associated Protein PDZ domain 2 (Mus musculus (Mouse)), Q6RHR9 (Q6RHR9 455-558): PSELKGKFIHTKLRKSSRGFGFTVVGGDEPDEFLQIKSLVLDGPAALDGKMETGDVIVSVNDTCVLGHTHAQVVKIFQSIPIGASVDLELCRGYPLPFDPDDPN

For the molecule GPVPGEPAKPKTSAHHATFV (modifications not checked) [RGS12 (regulator of G-protein signaling 12], the Classification in [1], in experiment [2], in [3], in experiment [4], in [5] and in [6] was 1 A450 class throughout. For the same molecule, the Classification in [7], in [8], in [9] and in [10] was 1 A450 class throughout.
Consider ISGTPTSTMVHGMTSSSSVV (modifications not checked) [Clasp-2], for which the Classification in [11], in [12], in experiment [13], in experiment [14], in [15] and in [3] was 1 A450 class in each case. Further, the Classification in [16], in [17], in experiment [18], in experiment [19], in experiment [20] and in [21] was 1 A450 class throughout. Besides, the Classification in experiment [22] turned out to be 1 A450 class; in experiment [23] it was 1 A450 class; in experiment [24], 2 A450 class; in experiment [25], 1 A450 class; in [26], 1 A450 class; in [27] it was 2 A450 class. Also, the Classification in [28] is 1 A450 class.
For the molecule NGGFAVDKSDTISFTQTSQF (modifications not checked) [glutamate transporter 3], the Classification in [29], in experiment [30], in [31], in experiment [19], in experiment [32] and in [20] was 1 A450 class in each case. In addition, the Classification in experiment [21], in experiment [7] and in experiment [33] was 1 A450 class each time.
As to GGGGGSGGGGGSGIESVKI (modifications not checked) [GLUR2 (glutamate receptor 2-modified)], the Classification was found to be 2 A450 class in experiment [11]; 1 A450 class in experiment [15]; 2 A450 class in experiment [2]; 1 A450 class in experiment [34]; 1 A450 class in [35]; 1 A450 class in [36]. Also, the Classification was found to be 1 A450 class in experiment [31], 4 A450 class in experiment [17], 2 A450 class in experiment [24] and 2 A450 class in experiment [27].
On to EVIGYIEKPGVETLEDSVF (modifications not checked) [CDW125 (modified)], for which the Classification in [29] and in [35] was 1 A450 class in each case.
